# Test results taken from the DeepSol protein solubility set.
# Assay: soluble on expression in E. coli; label from the status in PepcDB or PDB records
row,Sequence,soluble on expression in E. coli
1,MLRKEEILERTSNGLSVFKHYVPGNWRIGRNFLNPLYEDNKASCNIYFDRRSGIYKMKDFGNDNYSGDCFFFVGQLKGLDCNNSMDFVEILETIDRDLGLGLATGNPIPVTRNSCRVVDNILEETPEKESKPYQFREQKFPLAELMYWQQYGITPEILELYKVCSLRDFQSVTADGTQFTYTSSVTEPMYGYKSKRYIKLYRPFSKTRFLYGGNFGDNYCFGLEQLPAKGDTLFITGGEKDVMSLAAHGFHAICFNSETVTVPPTLIYKLTFRFKHIILLYDTDKTGKESARKQEKQLEEFSVKRLLLPLSGTKEEKDISDYFKAGNTREDFLKLFIEFLDNLYSDTLIMLKSCEIDFNNPPAKAQVIISAGDVPLGTQGNLFGITGGEGTGKSNYIAAMLAGCICQPDKEVDTLGIQITANSKRKAVLLYDTEQSEVQLFKNVSNLLARAKQPDKPEELKAFCLTGMSRKERLHAIVQSMDKFYYQYGGIQLVVIDGIADLVKSANDEAESVAVIDELYRLAGIYNTCILCVLHFVPNGLKLRGHLGSELQRKAATILSIEKDEEPTQSVVKALKVRDGSPLDVPLMLFAWDKAAGMHLYKGEKPREEKEKRKEKELVCVARDIFGRQTHITYIDLCEQVAAGFGRERTYCQKLCSFHAGTGYYH,not soluble
2,MATNESIMTLPLASKFKAEARAMADRGLSTYEAVYQLNKLEEQDKPRADAIMALDESGDYQPLLRAMANVPCIDVGTAKSILSMTIEQERPKVAPELTAAFENFMDMHSPQAVSAGMAYDGRNQGDDGDIDRILKTI,soluble
3,MQTYGGGWVLFQNRFDDSESYWDRKWDEYKNGFGDVDENSNFWLGNEALHVMTTNKKVTLRVEMYGDRTPNSKNATDFWFGHYFDFQVGSKTQNYPLLDLTMDWANPIGNASTAWYDLTCSIGSPFSTIDNIHDPVKECVTKFQMG,not soluble
4,MLNRIIEHMNAHHVEDMKGLLKKFGQVHHAENVAFKSVDSQGIVIGYNNNQTLRIEFNHEVKDPKDYKNATIELCQSVEKTHDLKGVEEEVKAFKEGFDSVCLATLHPNGHVVCSYAPLMSDGKQYYIYVSEVAEHFAGLKNNPHNVEVMFLEDESKAKSAILRKRLRYKTNTRFIERGAEFDKAFDSFIEKTGGAGGIKTIRAMQDFHLIALDFKEGRFVKGFGQAYDILGDKIAYVGDKGNPHNFAHKKLEHHHHHH,soluble
5,MSLKIIPYSVNVMDEHGVIIASGEPSRLRQRHEGAILALKENRIVEIDSATANQLKGVRSGINLPISFHEQLIGVVGITGEPEEVRAYAELVKMAAELVIEHMVLIEQRQWDKRYREELINQLILRENSTESLRSMAAYLGIDLAVPRVVLIIELSQPDREALRNVMDYFENHARNHLVTFTEFNELIIIKPITLKEGKWNTRQEMGELQIFKSWAASSGFSRILVGGYFAGETGLHRSLLTARATQAMAKRQKLRSQYIFYHDHALPALLSGLSESWQVQELSRLWLQLVQHDAKGVLQQTLRTWFEHNCDLTQTAKALHIHVNTLRYRLQRCEDITHIKINELKSTLWLYIGMELQAESVSSDKLPLPGREGHHHHHH,not soluble
6,MSLGFASQQEAVNDFWGWPSDESDKEAVEASIRKYANAIADTINKYGYDGFDIDYEPNYGNKGNIVDDDDRMFIFVDELGKHFGPKSGTGKLLIIDGEPQSIKNRPDVGPYFDYFIIQAYKPGNDNNLDKRLIDGGVAGPGLVQTYGSVMSEEQITKMTIMTENFEAVDAAMDGGYPYTDRYGNSMKSLEGMARWQPKNGFRKGGVGSYHMEAEYPTNPEYKNLRKAIQIMNPSTKPLIKYEGHHHHHH,soluble
7,MGSDKIHHHHHHMIGKRFFQTTSKKIAFAFDIDGVLFRGKKPIAGASDALKLLNRNKIPYILLTNGGGFSERARTEFISSKLDVDVSPLQIIQSHTPYKSLVNKYSRILAVGTPSVRGVAEGYGFQDVVHQTDIVRYNRDIAPFSGLSDEQVMEYSRDIPDLTTKKFDAVLVFNDPHDWAADIQIISDAINSENGMLNTLRNEKSGKPSIPIYFSNQDLLWANPYKLNRFGQGAFRLLVRRLYLELNGEPLQDYTLGKPTKLTYDFAHHVLIDWEKRLSGKIGQSVKQKLPLLGTKPSTSPFHAVFMVGDNPASDIIGAQNYGWNSCLVKTGVYNEGDDLKECKPTLIVNDVFDAVTKTLEKYA,not soluble
8,MQDLSGFTVPKGFRGANALKVQLWWAVQATLFAGSPQILYRWRAFLLRLFGAKIGKNVVIRPSVKITYPWKLTVGDYAWVGDDAVLYTLGEINIGAHAVISQKGYLCTGSHDYTSAHFDINAAPIVIGEKCWLATDVFVAPGVTIGHGTVVGARSSVFKSLPANAICRGNPAVVTRQRVQKVTP,not soluble
9,CSLIPDYQRPEAPVAAAYPQGQAYGQNTGAAAVPAADIGWREFFRDPQLQQLIGVALENNRDLRVAALNVEAFRAQYRIQRADLFPRIGVDGSGTRQRLPGDLSTTGSPAISSQYGVTLGTTAWELDLFGRLRSLRDQALEQYLATEQAQRSAQTTLVASVATAYLTLKADQAQLQLTKDTLGTYQKSFDLTQRSYDVGVASALDLRQAQTAVEGARATLAQYTRLVAQDQNALVLLLGSGIPANLPQGLGLDQTLLTEVPAGLPSDLLQRRPDILEAEHQLMAANASIGAARAAFFPSISLTANAGTMSRQLSGLFDAGSGSWLFQPSINLPIFTAGSLRASLDYAKIQKDINVAQYEKAIQTAFQEVADGLAARGTFTEQLQAQRDLVKASDEYYQLADKRYRTGVDNYLTLLDAQRSLFTAQQQLITDRLNQLTSEVNLYKALGGGWNQQTVTQQQTAKKEDPQAHHHHHH,soluble
10,MSLAEILMGVGNAGLKESGNPDILVVYLPYPCTASFVFTDNYFKAGSVIYSERIARDKERIRAFVVNSGNANCGTGEEGIKHAEMMAEKVAQILDIPKDEVFVFSTGIIGKYLPIENVLKGIEQACSNLELLDLKRASEVISTTDRFPKYDFAKAGEVETFGFAKGAGMIHPSMATMLAFVFTNANLEYLTLKRIHESVTEKTFNSITVDGCESTNDAFGIISLGEVEADPETVEFELLKVSESLAKQIVADGEGATKIIRVNVRSAITEIKAREIAEAIANSLLVKTAVFGRDPNWGRIAAAAGSTEFPIDPFKLEIYVGGYLLYDGKPHDENLEKAKKHLIEDREVDITVELNEGEYEWVCYSSDIGYDYIKLNAEYTTEGHHHHHH,soluble
11,AHHHHHHGSKKKYKKVVVGGTFDRLHLGHKALLRKAFEVGEIVYIGLTSDEMIKEKQYSERILPYEKRLLDLIKFLEVNKYRNYRIMKIHNAIGFTTKIKSLEAIVVSEETYKGAVLVNKAREELGLRPLDIVVIPIIRSRLGCKISSSLIRAGLIDPFGNPIRREEK,not soluble
12,PAVLELEGKKWRVENQENVSNLVIEDTELKQVAYIYKCVNTTLQIKGKINSITVDNCKKLGLVFDDVVGIVEIINSKDVKVQVMGKVPTISINKTDGCHAYLSKNSLDCEIVSAKSSEMNVLIPTEGGDFNEFPVPEQFKTLWNGQKLVTTVTEIAG,soluble
13,MFILSAQRLSGTQVFRRLAEGCTGYSVSSGCRQRRRCCPGAPQRPRRVRVNALQLQSGLADPLDPKSEAEVREHLRSNSPAERALGINYARYLDESTRYDILLEMMEDTDPQVRYAAVTQLATVGSHDRQRTLKAVRKILWNTEEDASVRAGAADVLGGLRFHEAFPDLEKLFHESKDWVVRFSIIAALGEMGVREAFPILVEALHANKEPLVQLAAIGALGELGDERARVYLEPLVNSSDASIVERARFALDALDARGSERT,not soluble
14,MAHHHHHHMSISVRIRTPKSSTPEQVELNSSGTWGEAAVLLSRKSEVALERLRVLAGFPPKAVDLAADSPLSALKLRANDMLIVQEGEAKVQLGNTGERYVPPAPERAHLTRRRCPADNSCLFHACAYVLRDKSRTEGPQLRQECVQAVLDHPEMFNVNTLGMDPLAYASWLSQKDTWGGAIELEILSFLYKTEMFALDLQSVTVQRFGTGLGYTVRAFLVYTGNHYDCIAMNPVYNSASEREDQTLFSSRDENVLVRAKRFVAEEGQKMKEGKAT,soluble
15,MSLDRFVVTYRIVAEDEADAAARAASIALEDTVEIPRDVVPAGYVEDVVLGRVESVTARGGGVWTALIGYHVDAVGRELPQLLNVILGNASILRGVKAVDLAPDAALAERFPGARFGAAGVRRLTGRASGGFVCPVIKPQGSSAETLARLCYLSAVAGADIVKEDHGLANQDAAPFRERIGACAEAVGRANAERRDQGDTTQALYFANLCGPPHQLRDQAYYAKESGAHGILLIPGLHGFDAMFELAQDPDFDLPIMAHPSHLGPYVLSPDHGYGHGMLFGQLMRLAGADISVFPNHGGRFGFSVDECEEIVRACRDPEGLGPAILPSPGGGMSPERLPDMMAQYGEDCVYLLGGSLLRAGDRIGELIAEMRAALSGRDEGHHHHHH,soluble
16,MRDAQRPDLSTTFTVLLAGGRGSRLHELTSRECKPALPFAGPRRIVDFTLANAARSGLTRMIVATQYRPETLAHHLESRWASRFAGGSLRLREGTAVTGSPQGYGGTAAAVAANLAELQSEGVRELVVLAADHVYEMDYADMVAAHRASGASATVAVDTVPTDRASEFGVVRTSEGGRIESFLEKPAVVPADPAIPGRAQVSMGIYVFDLDWLASVLRIIPGATQDFGHDILPLAVALGEAHAYRVPGDNFYWRDVGTLDAYRLAQLEFQTGEAPCALPPRIAASEHEMKAATGELIQFAFRMQTGGIALHSPRLGGDLPGRWTMLDESVLLPGARVAPGVRLTRTIVAPGTSVPAGLVIGEDPDEDARWFRRTEEGTVLVTTPMLARRAADRGRLVAPFADSRMGRSALEHHHHHH,not soluble
17,MKMKDELINLIINEGCIKFGHFVLTSGKESNYYIDIKSLITNPKALRIIAKLIKEKAEELNLNYDKIAGPELGAVPIATALSLETNKPLLIVRKKKKEHGTGKVIEGNVQKGDKVLLVEDVTTTGGSVIRAAKILREHGADVVGIFVVVDREEGAKENIEKEGFKFYPLVLVSELFKAAGISKDQS,soluble
18,MAKLTALTLLGMGLALFDRQKSSFQTRFNVHREVTPVELPNCNLVKGIDNGSEDLEILPNGLAFISSGLKYPGIMSFDPDKSGKILLMDLNEKEPAVSELEIIGNTLDISSFNPHGISTFIDDDNTVYLLVVNHPGSSSTVEVFKFQEEEKSLLHLKTIRHKLLPSVNDIVAVGPEHFYATNDHYFIDPYLKSWEMHLGLAWSFVTYYSPNDVRVVAEGFDFANGINISPDGKYVYIAELLAHKIHVYEKHANWTLTPLRVLSFDTLVDNISVDPVTGDLWVGCHPNGMRIFFYDAENPPGSEVLRIQDILSEEPKVTVVYAENGTVLQGSTVAAVYKGKLLIGTVFHKALYCDL,soluble
19,MAGLRSFSIVMPAYNVVTQRGERIFRETLESIAASCRYLQQHFPYTPEGELILISDGSTDRTCDVAMAGWPNAVPLQLVGLPTNVGIAAARNIGVRLAKGEVIFFCDADDLYRPEHLFLALSVLNQPLPEPYAPAYFGAVRTGVYCRDRLHPYWHKSLEQTLVLNLAVRREVHEFIGGFPEDEVFRQFRYGAEDVAYAYWLHQFCHTARLEQRTVEYRRFPLEHHHHHH,soluble
20,GMSHSLKDFLEACETLGTLRLIVTSSAAVLEARGKIEKLFYAELAKGKYANMHTEGFEFHLNMEKITQVKFETGEAKRGNFTTYAIRFLDEKQESALSLFLQWGKPGEYEPGQVEAWHTLKEKYGEVWEPLPVQL,soluble
21,MSDNNQALKDAGLKVTLPRLKILEVLQQPECQHISAEELYKKLIDLGEEIGLATVYRVLNQFDDAGIVTRHHFEGGKSVFELSTQHHHDHLVCLDCGEVIEFSDDVIEQRQKEIAAKYNVQLTNHSLYLYGKCGSDGSCKDNPNAHKPKK,soluble
